Reference: patent US20200369769A1

Target: PD-L1 (UniProt Q9NZQ7)
Assay: cell-based or functional assay

Sequence of PD-L1 (Q9NZQ7 19-290 limits assumed): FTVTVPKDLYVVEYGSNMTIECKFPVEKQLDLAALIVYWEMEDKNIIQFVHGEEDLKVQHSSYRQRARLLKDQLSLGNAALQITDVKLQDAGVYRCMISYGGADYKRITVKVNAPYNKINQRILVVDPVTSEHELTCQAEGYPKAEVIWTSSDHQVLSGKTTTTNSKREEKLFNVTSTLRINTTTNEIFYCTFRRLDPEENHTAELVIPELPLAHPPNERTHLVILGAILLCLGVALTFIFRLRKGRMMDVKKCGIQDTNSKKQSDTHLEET

- IL2 concentration (% over isotype control), mixed lymphocyte reaction (% over isotype control): 247
Substance: anti-PD-L1 antibody (chimera of the variable domain of atezolizumab with human IgG2 domains)
